From patent US20230167164A1 (IMMUNOWAKE, published 2023)

Legend:
Assay in all cases: cell-based or functional assay
[1] = molecular target: T1, human IL-2 receptor (human, UniProt P01589 22-272; P14784 27-551; P31785 23-369)
T1 sequence (looked up) 1: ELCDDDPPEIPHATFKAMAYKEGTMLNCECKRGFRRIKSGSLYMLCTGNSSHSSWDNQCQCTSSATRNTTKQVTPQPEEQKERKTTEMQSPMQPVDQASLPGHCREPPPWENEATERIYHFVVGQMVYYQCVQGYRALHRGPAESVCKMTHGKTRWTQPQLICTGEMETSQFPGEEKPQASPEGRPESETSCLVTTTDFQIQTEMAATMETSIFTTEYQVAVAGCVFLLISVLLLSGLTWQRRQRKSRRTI
T1 sequence (looked up) 2: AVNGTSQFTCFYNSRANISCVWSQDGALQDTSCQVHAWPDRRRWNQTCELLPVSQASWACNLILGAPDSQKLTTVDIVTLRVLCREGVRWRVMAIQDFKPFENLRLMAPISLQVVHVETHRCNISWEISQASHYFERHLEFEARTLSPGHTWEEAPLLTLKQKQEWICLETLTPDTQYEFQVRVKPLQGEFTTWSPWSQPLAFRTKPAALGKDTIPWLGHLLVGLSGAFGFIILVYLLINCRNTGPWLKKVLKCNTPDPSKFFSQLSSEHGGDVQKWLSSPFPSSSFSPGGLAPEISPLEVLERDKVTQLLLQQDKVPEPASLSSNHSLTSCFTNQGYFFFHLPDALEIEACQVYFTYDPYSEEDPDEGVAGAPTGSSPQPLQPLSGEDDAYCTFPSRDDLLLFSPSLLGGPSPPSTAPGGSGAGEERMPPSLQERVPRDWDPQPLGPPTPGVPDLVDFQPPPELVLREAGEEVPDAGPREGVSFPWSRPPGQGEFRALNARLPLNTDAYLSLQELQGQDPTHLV
T1 sequence (looked up) 3: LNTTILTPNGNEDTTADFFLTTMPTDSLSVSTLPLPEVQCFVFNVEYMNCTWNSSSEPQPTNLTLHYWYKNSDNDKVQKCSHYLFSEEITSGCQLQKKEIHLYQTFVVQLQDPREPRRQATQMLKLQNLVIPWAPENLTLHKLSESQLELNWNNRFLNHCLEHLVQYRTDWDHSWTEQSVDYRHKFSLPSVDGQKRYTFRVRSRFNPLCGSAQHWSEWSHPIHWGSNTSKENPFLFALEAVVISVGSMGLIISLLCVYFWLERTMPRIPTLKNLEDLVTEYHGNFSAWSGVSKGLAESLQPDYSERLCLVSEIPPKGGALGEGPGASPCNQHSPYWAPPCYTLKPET

[2] = molecular target: human PD-1 overexpressed on HEK-Blue reporter cells (human, UniProt Q15116 25-288)
Chain of human PD-1 overexpressed on HEK-Blue reporter cells (Q15116 25-288): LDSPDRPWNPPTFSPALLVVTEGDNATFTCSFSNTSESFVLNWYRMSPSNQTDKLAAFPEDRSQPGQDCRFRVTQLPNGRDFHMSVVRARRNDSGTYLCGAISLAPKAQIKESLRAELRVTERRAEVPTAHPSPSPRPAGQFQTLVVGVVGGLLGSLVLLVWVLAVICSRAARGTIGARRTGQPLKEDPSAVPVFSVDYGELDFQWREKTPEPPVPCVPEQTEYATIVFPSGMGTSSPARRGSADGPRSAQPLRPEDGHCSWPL

[3] = molecular target: human IL-12 receptor complex (human, UniProt P42701 24-662; Q99665 24-862)
Chain of human IL-12 receptor complex (Q99665 24-862, chain 2 of 2, other chains not shown): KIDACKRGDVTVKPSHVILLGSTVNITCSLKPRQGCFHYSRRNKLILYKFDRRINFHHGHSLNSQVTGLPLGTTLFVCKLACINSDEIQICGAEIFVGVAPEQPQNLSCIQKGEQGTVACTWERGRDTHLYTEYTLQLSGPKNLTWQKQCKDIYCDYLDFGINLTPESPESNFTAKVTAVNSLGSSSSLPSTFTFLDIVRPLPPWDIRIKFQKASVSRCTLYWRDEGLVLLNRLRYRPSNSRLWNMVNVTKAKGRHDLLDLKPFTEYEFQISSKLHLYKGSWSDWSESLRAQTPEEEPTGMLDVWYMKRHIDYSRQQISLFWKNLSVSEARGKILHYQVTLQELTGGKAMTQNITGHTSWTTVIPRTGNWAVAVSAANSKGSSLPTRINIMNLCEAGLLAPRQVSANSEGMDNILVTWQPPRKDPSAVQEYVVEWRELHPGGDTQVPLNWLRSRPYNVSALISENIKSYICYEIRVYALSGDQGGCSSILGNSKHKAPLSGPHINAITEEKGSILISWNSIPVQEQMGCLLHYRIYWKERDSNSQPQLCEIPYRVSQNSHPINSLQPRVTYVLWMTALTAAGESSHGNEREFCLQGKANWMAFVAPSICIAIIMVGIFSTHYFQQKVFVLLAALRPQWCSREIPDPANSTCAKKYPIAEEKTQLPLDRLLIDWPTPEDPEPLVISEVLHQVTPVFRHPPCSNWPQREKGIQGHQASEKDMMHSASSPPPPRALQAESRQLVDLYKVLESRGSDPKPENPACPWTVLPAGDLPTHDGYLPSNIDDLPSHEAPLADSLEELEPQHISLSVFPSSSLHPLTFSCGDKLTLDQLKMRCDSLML

IL-2 signal transduction, % of rIL-2, HEK-IL-2 cells [1] [%]	IL-2 signal transduction, % of rIL-2, HEK-IL-2-PD-1 cells [2] [%]	IL-12 signal transduction, % of rIL-12, HEK-IL-12-PD-1 cells [2] [%]	IL-12 signal transduction, % of rIL-12, HEK-IL-12 cells [3] [%]	Binder
2	20	25	< 0.2	IL-2(R38D/K43E/E61R/Q126T)/IL-12(E59A/F60A)/PD-L1(mut2)-Fc (Fc fusion) chain 1: FTVTVPKDLYVVEYGSNMTIECKFPVEKQLDLAALQVYWMMEDKNIIQFVHGEEDLKVQHSSYRQRARLLKDQLSLGNAALQITDVKLQDAGVYTCLIAYKGADYKRITVKVNAPYNKINQRILVVDPVTSEHELTCQAEGYPKAEVIWTSSDHQVLSGKTTTTNSKREEKLFNVTSTLRINTTTNEIFYCTFRRLDPEENHTAELVIPELPLAHPPNERGGGGSGGGIWELKKDVYVVELDWYPDAPGEMVVLTCDTPEEDGITWTLDQSSEVLGSGKTLTIQVKAAGDAGQYTCHKGGEVLSHSLLLLHKKEDGIWSTDILKDQKEPKNKTFLRCEAKNYSGRFTCWWLTTISTDLTFSVKSSRGSSDPQGVTCGAATLSAERVRGDNKEYEYSVECQEDSACPAAEESLPIEVMVDAVHKLKYENYTSSFFIRDIIKPDPPKNLQLKPLKNSRQVEVSWEYPDTWSTPHSYFSLTFCVQVQGKSKREKKDRVFTDKTSATVICRKNASISVRAQDRYYSSSWSEWASVPCSGGGGSGGGSGGGGSRNLPVATPDPGMFPCLHHSQNLLRAVSNMLQKARQTLEFYPCTSEEIDHEDITKDKTSTVEACLPLELTKNESCLNSRETSFITNGSCLASRKTSFMMALCLSSIYEDLKMYQVEFKTMNAKLLMDPKRQIFLDQNMLAVIDELMQALNFNSETVPQKSSLEEPDFYKTKIKLCILLHAFRIRAVTIDRVMSYLNASGGGGSGGGDKTHTCPPCPAPEDEGGPSVFLFPPKPKDTLMISRTPEVTCVVVDVSHEDPEVKFNWYVDGVEVHNAKTKPREEQYNSTYRVVSVLTVLHQDWLNGKEYKCKVSNKALPAPIEKTISKAKGQPREPQVYVYPPSREEMTKNQVSLTCLVKGFYPSDIAVEWESNGQPENNYKTTPPVLDEDGSFALVSKLTVDKSRWQQGNVFSCSVMHEALHNHYTQKSLSLSPGK chain 2: FTVTVPKDLYVVEYGSNMTIECKFPVEKQLDLAALQVYWMMEDKNIIQFVHGEEDLKVQHSSYRQRARLLKDQLSLGNAALQITDVKLQDAGVYTCLIAYKGADYKRITVKVNAPYNKINQRILVVDPVTSEHELTCQAEGYPKAEVIWTSSDHQVLSGKTTTTNSKREEKLFNVTSTLRINTTTNEIFYCTFRRLDPEENHTAELVIPELPLAHPPNERGGGSGAPTSSSTKKTQLQLEHLLLDLQMILNGINNYKNPKLTDMLTFEFYMPKKATELKHLQCLERELKPLEEVLNLAQSKNFHLRPRDLISNINVIVLELKGSETTFMCEYADETATIVEFLNRWITFCTSIISTLTGGGGSGGGDKTHTCPPCPAPEKKGGPSVFLFPPKPKDTLMISRTPEVTCVVVDVSHEDPEVKFNWYVDGVEVHNAKTKPREEQYNSTYRVVSVLTVLHQDWLNGKEYKCKVSNKALPAPIEKTISKAKGQPREPQVYVLPPSREEMTKNQVSLLCLVKGFYPSDIAVEWESNGQPENRYMTWPPVLDSDGSFFLYSKLTVDKSRWQQGNVFSCSVMHEALHNHYTQKSLSLSPGK
3	31	30	1	IL-2(R38D/K43E/E61R/Q126T)/PD-L1(mut2)-Fc/IL-12(E59A/F60A) (Fc fusion) chain 1: FTVTVPKDLYVVEYGSNMTIECKFPVEKQLDLAALQVYWMMEDKNIIQFVHGEEDLKVQHSSYRQRARLLKDQLSLGNAALQITDVKLQDAGVYTCLIAYKGADYKRITVKVNAPYNKINQRILVVDPVTSEHELTCQAEGYPKAEVIWTSSDHQVLSGKTTTTNSKREEKLFNVTSTLRINTTTNEIFYCTFRRLDPEENHTAELVIPELPLAHPPNERGGGGSGGGDKTHTCPPCPAPEDEGGPSVFLFPPKPKDTLMISRTPEVTCVVVDVSHEDPEVKFNWYVDGVEVHNAKTKPREEQYNSTYRVVSVLTVLHQDWLNGKEYKCKVSNKALPAPIEKTISKAKGQPREPQVYVYPPSREEMTKNQVSLTCLVKGFYPSDIAVEWESNGQPENNYKTTPPVLDEDGSFALVSKLTVDKSRWQQGNVFSCSVMHEALHNHYTQKSLSLSPGKGGGGSGGGIWELKKDVYVVELDWYPDAPGEMVVLTCDTPEEDGITWTLDQSSEVLGSGKTLTIQVKAAGDAGQYTCHKGGEVLSHSLLLLHKKEDGIWSTDILKDQKEPKNKTFLRCEAKNYSGRFTCWWLTTISTDLTFSVKSSRGSSDPQGVTCGAATLSAERVRGDNKEYEYSVECQEDSACPAAEESLPIEVMVDAVHKLKYENYTSSFFIRDIIKPDPPKNLQLKPLKNSRQVEVSWEYPDTWSTPHSYFSLTFCVQVQGKSKREKKDRVFTDKTSATVICRKNASISVRAQDRYYSSSWSEWASVPCSGGGGSGGGSGGGGSRNLPVATPDPGMFPCLHHSQNLLRAVSNMLQKARQTLEFYPCTSEEIDHEDITKDKTSTVEACLPLELTKNESCLNSRETSFITNGSCLASRKTSFMMALCLSSIYEDLKMYQVEFKTMNAKLLMDPKRQIFLDQNMLAVIDELMQALNFNSETVPQKSSLEEPDFYKTKIKLCILLHAFRIRAVTIDRVMSYLNAS chain 2: FTVTVPKDLYVVEYGSNMTIECKFPVEKQLDLAALQVYWMMEDKNIIQFVHGEEDLKVQHSSYRQRARLLKDQLSLGNAALQITDVKLQDAGVYTCLIAYKGADYKRITVKVNAPYNKINQRILVVDPVTSEHELTCQAEGYPKAEVIWTSSDHQVLSGKTTTTNSKREEKLFNVTSTLRINTTTNEIFYCTFRRLDPEENHTAELVIPELPLAHPPNERGGGSGAPTSSSTKKTQLQLEHLLLDLQMILNGINNYKNPKLTDMLTFEFYMPKKATELKHLQCLERELKPLEEVLNLAQSKNFHLRPRDLISNINVIVLELKGSETTFMCEYADETATIVEFLNRWITFCTSIISTLTGGGGSGGGDKTHTCPPCPAPEKKGGPSVFLFPPKPKDTLMISRTPEVTCVVVDVSHEDPEVKFNWYVDGVEVHNAKTKPREEQYNSTYRVVSVLTVLHQDWLNGKEYKCKVSNKALPAPIEKTISKAKGQPREPQVYVLPPSREEMTKNQVSLLCLVKGFYPSDIAVEWESNGQPENRYMTWPPVLDSDGSFFLYSKLTVDKSRWQQGNVFSCSVMHEALHNHYTQKSLSLSPGK
3	32	27	2	IL-2(L18R/Q22E/R38D/K43E/E61R)/PD-L1(mut2)-Fc/IL-12(E59A/F60A) (Fc fusion) chain 1: FTVTVPKDLYVVEYGSNMTIECKFPVEKQLDLAALQVYWMMEDKNIIQFVHGEEDLKVQHSSYRQRARLLKDQLSLGNAALQITDVKLQDAGVYTCLIAYKGADYKRITVKVNAPYNKINQRILVVDPVTSEHELTCQAEGYPKAEVIWTSSDHQVLSGKTTTTNSKREEKLFNVTSTLRINTTTNEIFYCTFRRLDPEENHTAELVIPELPLAHPPNERGGGGSGGGDKTHTCPPCPAPEDEGGPSVFLFPPKPKDTLMISRTPEVTCVVVDVSHEDPEVKFNWYVDGVEVHNAKTKPREEQYNSTYRVVSVLTVLHQDWLNGKEYKCKVSNKALPAPIEKTISKAKGQPREPQVYVYPPSREEMTKNQVSLTCLVKGFYPSDIAVEWESNGQPENNYKTTPPVLDEDGSFALVSKLTVDKSRWQQGNVFSCSVMHEALHNHYTQKSLSLSPGKGGGGSGGGIWELKKDVYVVELDWYPDAPGEMVVLTCDTPEEDGITWTLDQSSEVLGSGKTLTIQVKAAGDAGQYTCHKGGEVLSHSLLLLHKKEDGIWSTDILKDQKEPKNKTFLRCEAKNYSGRFTCWWLTTISTDLTFSVKSSRGSSDPQGVTCGAATLSAERVRGDNKEYEYSVECQEDSACPAAEESLPIEVMVDAVHKLKYENYTSSFFIRDIIKPDPPKNLQLKPLKNSRQVEVSWEYPDTWSTPHSYFSLTFCVQVQGKSKREKKDRVFTDKTSATVICRKNASISVRAQDRYYSSSWSEWASVPCSGGGGSGGGSGGGGSRNLPVATPDPGMFPCLHHSQNLLRAVSNMLQKARQTLEFYPCTSEEIDHEDITKDKTSTVEACLPLELTKNESCLNSRETSFITNGSCLASRKTSFMMALCLSSIYEDLKMYQVEFKTMNAKLLMDPKRQIFLDQNMLAVIDELMQALNFNSETVPQKSSLEEPDFYKTKIKLCILLHAFRIRAVTIDRVMSYLNAS chain 2: FTVTVPKDLYVVEYGSNMTIECKFPVEKQLDLAALQVYWMMEDKNIIQFVHGEEDLKVQHSSYRQRARLLKDQLSLGNAALQITDVKLQDAGVYTCLIAYKGADYKRITVKVNAPYNKINQRILVVDPVTSEHELTCQAEGYPKAEVIWTSSDHQVLSGKTTTTNSKREEKLFNVTSTLRINTTTNEIFYCTFRRLDPEENHTAELVIPELPLAHPPNERGGGSGAPTSSSTKKTQLQLEHLRLDLEMILNGINNYKNPKLTDMLTFEFYMPKKATELKHLQCLERELKPLEEVLNLAQSKNFHLRPRDLISNINVIVLELKGSETTFMCEYADETATIVEFLNRWITFCQSIISTLTGGGGSGGGDKTHTCPPCPAPEKKGGPSVFLFPPKPKDTLMISRTPEVTCVVVDVSHEDPEVKFNWYVDGVEVHNAKTKPREEQYNSTYRVVSVLTVLHQDWLNGKEYKCKVSNKALPAPIEKTISKAKGQPREPQVYVLPPSREEMTKNQVSLLCLVKGFYPSDIAVEWESNGQPENRYMTWPPVLDSDGSFFLYSKLTVDKSRWQQGNVFSCSVMHEALHNHYTQKSLSLSPGK
